Reference: the supplement of paper PMC10567573

B1: TRIM43 (parent)
chain: YQEIFQQLQRSWVKMDQKSKHLKE

Variants of: B1
Experiment: protein stability index of a GFP-peptide fusion (GPS, HEK-293T) (PSI 1-6); higher = more stable
Conditions: c terminus: a fixed tail appended
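Further: lentivirally expressed fusions sorted by FACS into six bins by GFP to DsRed ratio, PSI derived from sequencing read proportions per bin multiplied by bin number.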

Variant	protein stability index
E24V	1.81
E24G	1.78
E24K	1.99
E24S	2.78
E24I	1.78
E24M	1.71
E24H	2.33
E24P	1.81
E24D	2.48
E24T	1.91
E24L	2.45
E24Y	1.95
E24N	2.28
E24F	1.92
E24R	1.8
E24Q	1.57
E24W	2.41
